Source: article PMC7452723, “How to measure and evaluate binding affinities”

T1: Puf4 RNA-binding domain (Saccharomyces cerevisiae, UniProt P25339 537-888)
T1 sequence: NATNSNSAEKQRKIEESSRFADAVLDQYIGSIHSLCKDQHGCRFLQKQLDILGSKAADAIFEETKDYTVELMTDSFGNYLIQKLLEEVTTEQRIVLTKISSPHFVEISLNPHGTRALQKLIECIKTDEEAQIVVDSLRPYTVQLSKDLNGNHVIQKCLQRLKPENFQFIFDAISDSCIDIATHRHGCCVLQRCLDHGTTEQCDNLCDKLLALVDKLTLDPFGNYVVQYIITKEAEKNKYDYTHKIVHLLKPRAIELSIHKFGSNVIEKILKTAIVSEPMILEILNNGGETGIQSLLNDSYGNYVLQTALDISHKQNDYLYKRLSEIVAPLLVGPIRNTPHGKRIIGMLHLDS

B1: Puf4_HO RNA (ssRNA)
RNA: AUGUGUAUAUUAGU
B2: U1C mutant competitor RNA (ssRNA)
RNA: CGUAUAUUA

How the values were obtained:
Puf4 RNA-binding domain [1] = molecular target: T1, Puf4 RNA-binding domain; assay: EMSA; 0 C; hyperbolic fit, upper limit (<=); 20 mM HEPES-Na or HEPES-K pH 7.4, 2 mM MgCl2, 100 mM KOAc, 2 mM DTT, 0.2% Tween 20, 5% glycerol, 0.1 mg/ml BSA; 25 or 0 C; native 20% gel at 4-6 C; conditions: protein: recombinant; tags: C-terminal SNAP tag; N-terminal 6xHis removed by TEV; label: 5'-32P; single strand
Puf4 RNA-binding domain [2] = molecular target: T1, Puf4 RNA-binding domain; assay: EMSA kinetics (koff/kon); 25 C; kon 1.04e8 M-1s-1, koff 0.014 s-1; 20 mM HEPES-Na or HEPES-K pH 7.4, 2 mM MgCl2, 100 mM KOAc, 2 mM DTT, 0.2% Tween 20, 5% glycerol, 0.1 mg/ml BSA; 25 or 0 C; native 20% gel at 4-6 C; conditions: protein: recombinant; tags: C-terminal SNAP tag; N-terminal 6xHis removed by TEV; label: 5'-32P; single strand
Puf4 RNA-binding domain [3] = molecular target: T1, Puf4 RNA-binding domain; assay: EMSA; 0 C; quadratic fit; 20 mM HEPES-Na or HEPES-K pH 7.4, 2 mM MgCl2, 100 mM KOAc, 2 mM DTT, 0.2% Tween 20, 5% glycerol, 0.1 mg/ml BSA; 25 or 0 C; native 20% gel at 4-6 C; conditions: protein: recombinant; tags: C-terminal SNAP tag; N-terminal 6xHis removed by TEV; label: 5'-32P; single strand
Puf4 RNA-binding domain [4] = molecular target: T1, Puf4 RNA-binding domain; assay: EMSA kinetics (koff/kon); 0 C; kon 2.85e7 M-1s-1, koff 2.92e-5 s-1; 20 mM HEPES-Na or HEPES-K pH 7.4, 2 mM MgCl2, 100 mM KOAc, 2 mM DTT, 0.2% Tween 20, 5% glycerol, 0.1 mg/ml BSA; 25 or 0 C; native 20% gel at 4-6 C; conditions: protein: recombinant; tags: C-terminal SNAP tag; N-terminal 6xHis removed by TEV; label: 5'-32P; single strand
Puf4 RNA-binding domain [5] = molecular target: T1, Puf4 RNA-binding domain; assay: EMSA; 25 C; direct measurement parallel to competition; corrected for 75% active protein; 20 mM HEPES-Na or HEPES-K pH 7.4, 2 mM MgCl2, 100 mM KOAc, 2 mM DTT, 0.2% Tween 20, 5% glycerol, 0.1 mg/ml BSA; 25 or 0 C; native 20% gel at 4-6 C; conditions: protein: recombinant; tags: C-terminal SNAP tag; N-terminal 6xHis removed by TEV; label: 5'-32P; single strand
Puf4 RNA-binding domain [6] = molecular target: T1, Puf4 RNA-binding domain; assay: EMSA; 25 C; quadratic fit; 20 mM HEPES-Na or HEPES-K pH 7.4, 2 mM MgCl2, 100 mM KOAc, 2 mM DTT, 0.2% Tween 20, 5% glycerol, 0.1 mg/ml BSA; 25 or 0 C; native 20% gel at 4-6 C; conditions: protein: recombinant; tags: C-terminal SNAP tag; N-terminal 6xHis removed by TEV; label: 5'-32P; single strand
Puf4 RNA-binding domain [7] = molecular target: T1, Puf4 RNA-binding domain; assay: EMSA; 25 C; hyperbolic fit; active-fraction corrected; 20 mM HEPES-Na or HEPES-K pH 7.4, 2 mM MgCl2, 100 mM KOAc, 2 mM DTT, 0.2% Tween 20, 5% glycerol, 0.1 mg/ml BSA; 25 or 0 C; native 20% gel at 4-6 C; conditions: protein: recombinant; tags: C-terminal SNAP tag; N-terminal 6xHis removed by TEV; label: 5'-32P; single strand
Puf4 RNA-binding domain [8] = molecular target: T1, Puf4 RNA-binding domain; assay: competition EMSA; 25 C; three-fold lower Puf4; 20 mM HEPES-Na or HEPES-K pH 7.4, 2 mM MgCl2, 100 mM KOAc, 2 mM DTT, 0.2% Tween 20, 5% glycerol, 0.1 mg/ml BSA; 25 or 0 C; native 20% gel at 4-6 C; conditions: protein: recombinant; tags: C-terminal SNAP tag; N-terminal 6xHis removed by TEV; label: none; single strand
Puf4 RNA-binding domain [9] = molecular target: T1, Puf4 RNA-binding domain; assay: competition EMSA; 25 C; vs labeled Puf4_HO, 0.45 nM active Puf4; 190-210 nM across 10-110 min; 230 nM with upper limit of labeled RNA; 20 mM HEPES-Na or HEPES-K pH 7.4, 2 mM MgCl2, 100 mM KOAc, 2 mM DTT, 0.2% Tween 20, 5% glycerol, 0.1 mg/ml BSA; 25 or 0 C; native 20% gel at 4-6 C; conditions: protein: recombinant; tags: C-terminal SNAP tag; N-terminal 6xHis removed by TEV; label: none; single strand

Binder | Kd (Puf4 RNA-binding domain [1]) | Kd (Puf4 RNA-binding domain [2]) | Kd (Puf4 RNA-binding domain [3]) | Kd (Puf4 RNA-binding domain [4]) | Kd (Puf4 RNA-binding domain [5]) | Kd (Puf4 RNA-binding domain [6]) | Kd (Puf4 RNA-binding domain [7]) | Kd (Puf4 RNA-binding domain [8]) | Kd (Puf4 RNA-binding domain [9])
B1 | < 0.0017 nM | 0.13 ± 0.03 nM | 0.00139 ± 9e-05 nM | 0.00102 ± 8e-05 nM | 0.105 nM | 0.12 ± 0.03 nM | 0.12 ± 0.03 nM |  | 
B2 |  |  |  |  |  |  |  | 180 nM | 204 nM
